Results taken from paper PMC8815974, “Mechanistic Insight Into Cadmium- and Zinc-Induced Inactivation of the Candida albicans Pif1 Helicase”.

T1: CaPif1 (Candida albicans, UniProt Q59RQ0 1-906)
T1 sequence: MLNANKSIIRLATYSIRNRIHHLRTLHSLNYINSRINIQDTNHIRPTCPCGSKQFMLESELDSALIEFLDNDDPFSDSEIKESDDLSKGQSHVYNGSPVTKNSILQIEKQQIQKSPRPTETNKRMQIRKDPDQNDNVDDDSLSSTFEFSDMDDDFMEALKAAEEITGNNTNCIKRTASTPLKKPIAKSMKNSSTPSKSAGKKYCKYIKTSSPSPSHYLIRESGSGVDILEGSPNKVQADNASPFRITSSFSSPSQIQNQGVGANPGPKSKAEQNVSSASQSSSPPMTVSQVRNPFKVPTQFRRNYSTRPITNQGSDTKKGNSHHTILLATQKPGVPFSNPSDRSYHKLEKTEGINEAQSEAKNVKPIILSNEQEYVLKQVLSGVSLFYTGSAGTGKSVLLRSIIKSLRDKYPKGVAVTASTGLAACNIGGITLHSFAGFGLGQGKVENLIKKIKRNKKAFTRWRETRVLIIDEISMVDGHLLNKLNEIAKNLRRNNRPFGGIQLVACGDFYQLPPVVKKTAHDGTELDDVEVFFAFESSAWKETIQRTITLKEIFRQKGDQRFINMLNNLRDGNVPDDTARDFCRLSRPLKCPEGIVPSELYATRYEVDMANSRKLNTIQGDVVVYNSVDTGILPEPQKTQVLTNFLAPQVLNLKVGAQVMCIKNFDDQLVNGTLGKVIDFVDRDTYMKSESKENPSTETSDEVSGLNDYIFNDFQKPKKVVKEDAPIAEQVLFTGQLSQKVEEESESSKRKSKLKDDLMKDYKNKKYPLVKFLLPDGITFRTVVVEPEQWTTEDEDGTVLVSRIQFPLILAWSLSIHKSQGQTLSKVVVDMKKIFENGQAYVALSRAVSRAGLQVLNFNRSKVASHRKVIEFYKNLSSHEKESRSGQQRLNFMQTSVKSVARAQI

B1: OhS22D21 (dsDNA)
DNA 1: CTGTAGGAATGTGAAATAAAAACGATGTTTTATTTACATTGTA
DNA 2: TACAATGTAAATAAAACATCG

Biological target: T1, CaPif1
Assay: EMSA; 1.5 mM Mg2+, no ATP; CaPif1 0-3000 nM; 25 mM Tris-HCl pH 7.5, 50 mM NaCl, 1.5 mM MgCl2, 1 mM DTT, 25 C; EMSA 10 nM DNA, 5 min, 6% native PAGE; FP 5 nM DNA, 10 min
Conditions: protein: recombinant, tags: none (N-terminal His-SUMO tag removed)

Binder	binding result (label: 3'-FAM on strand 1, 5' overhang 22 nt, 21 bp duplex)	binding result (label: 3'-FAM, single strand, 40 nt)
B1	binds	–
CCATGCAGCTGTCAGTCCATTGTCATGCTAGGCCTACTGC (ssDNA) [S40]	–	binds
